Assay [1] deals with 6xHis-14-3-3γ wild-type (human) (UniProt P61981). In words: native gel or EMSA; blue native gel (4-16%) of His-14-3-3γ after incubation with Flag-PAK6 S531N (4:1 molar ratio) under kinase assay conditions with or without 1 mM ATP; Coomassie staining.
A further assay concerns the target LRRK2 (UniProt Q5S007). Briefly: overlay of His-14-3-3γ on blotted Flag-LRRK2. The following applies: reference: 14-3-3γ wild type; sites S59.
A further assay has as its target 14-3-3γ (UniProt P61981). Briefly: overlay of His-14-3-3γ on blotted Flag-PAK6. The settings on record: reference: PAK6 wild type; sites S113.

Take “6xHis-14-3-3γ wild-type (from UniProt P61981 1-247) (natural protein)”: the stoichiometry N in assay [1] is 2.

In the assay with LRRK2, “14-3-3γ (from UniProt P61981) 14-3-3γ S59D” displayed an other: percent reduction versus wild type of 80%.

Consider PAK6 (from UniProt Q9NQU5) PAK6 S113A, for which the “binding against the reference” value with 14-3-3γ is reported as “weaker”.

As usually defined, the stoichiometry N is the number of molecules, sites or subunits per partner or assembly.

The values are drawn from article PMC5735978.
